Measurements published in publication PMC4265764 (2014).

B1: DARPin 3G61 (designed binder)
chain: MRGSHHHHHHGSDLGKKLLEAARAGQDDEVRILMANGADVNALDEVGWTPLHLAAWGHLEIVEVLLKNGADVNAADIDGYTPLHLAAFSGHLEIVEVLLKYGADVNADDQAGFTPLHLAAIFGHLEIVEVLLKNGADVNAQDKFGKTAFDISIDNGNEDLAEILQKLN
B2: DARPin 3G124 (designed binder)
chain: DLGKKLLEAARAGQDDEVRILMANGADVNAADDVGVTPLHLAAQRGHLEIVEVLLKYGADVNAADLWGQTPLHLAATAGHLEIVEVLLKNGADVNARDNIGHTPLHLAAWAGHLEIVEVLLKYGADVNAQDKFGKTAFDISIDNGNEDLAEILQ
B3: DARPin 3G86.32 (designed binder)
chain: MRGSHHHHHHGSDLGKKLLEAARAGQDDEVRILMANGADVNALDRFGLTPLHLAAQRGHLEIVEVLLKCGADVNAADLWGQTPLHLAATAGHLEIVEVLLKYGADVNALDLIGKTPLHLTAIDGHLEIVEVLLKHGADVNAQDKFGKTAFDISIDNGNEDLAEILQKLN
B4: DARPin 3G86.1 (designed binder)
chain: MRGSHHHHHHGSDLGKKLLEAARAGQDDEVRILMANGADVNALDRFGLTPLHLAAQRGHLEIVEVLLKCGADVNAADLWGQTPLHLAATAGHLEIVEVLLKNGADVNARDNIGHTPLHLAAWAGHLEIVEVLLKHGADVNAQDKFGKTAFDISIDNGNEDLAEILQKLN

How the values were obtained:
[1] = target: superfolder GFP (sfGFP) (UniProt P42212 = GFP, biotin (in-vivo biotinylated, in the ELISA)); assay: FP
[2] = target: T1, Green Fluorescent Protein (GFP) (UniProt P42212 1-238 = GFP, biotin on the avi-tag (in-vivo biotinylation)); assay: FP; PBS with 0.005% Tween-20
[3] = target: T1, Green Fluorescent Protein (GFP); assay: FP; PBS with 0.03% BSA
[4] = target: T1, Green Fluorescent Protein (GFP); assay: SPR
[5] = target: T1, Green Fluorescent Protein (GFP); assay: SPR; remark: listed apart in the source
[6] = target: T1, Green Fluorescent Protein (GFP); assay: FP

| Binder | Kd [1] | Kd [2] | Kd [3] | Kd [4] | koff [5] | Kd [6] |
| --- | --- | --- | --- | --- | --- | --- |
| B1 | 96 nM | < 5 nM | 76 nM | 1.1 nM | 0.000797 s⁻¹ | – |
| B2 | 22 nM | – | – | 0.36 nM | 0.000228 s⁻¹ | < 5 nM |
| B3 | 5.3 nM | – | – | – | 0.00022 s⁻¹ | < 5 nM |
| B4 | 29 nM | – | – | 0.32 nM | 0.000369 s⁻¹ | < 5 nM |
